The source of these data is article doi:10.1101/2022.01.11.475891, “Structural insights as to how iron-loaded siderophores are imported into Mycobacterium tuberculosis by IrtAB” (bioRxiv, 2022).

This experiment has as its target T1, IrtA, full length (subunit of full-length Mtb IrtAB) (M. tuberculosis H37Rv, UniProt P9WQJ9 1-859).
T1 construct: also called Rv1348
T1 sequence: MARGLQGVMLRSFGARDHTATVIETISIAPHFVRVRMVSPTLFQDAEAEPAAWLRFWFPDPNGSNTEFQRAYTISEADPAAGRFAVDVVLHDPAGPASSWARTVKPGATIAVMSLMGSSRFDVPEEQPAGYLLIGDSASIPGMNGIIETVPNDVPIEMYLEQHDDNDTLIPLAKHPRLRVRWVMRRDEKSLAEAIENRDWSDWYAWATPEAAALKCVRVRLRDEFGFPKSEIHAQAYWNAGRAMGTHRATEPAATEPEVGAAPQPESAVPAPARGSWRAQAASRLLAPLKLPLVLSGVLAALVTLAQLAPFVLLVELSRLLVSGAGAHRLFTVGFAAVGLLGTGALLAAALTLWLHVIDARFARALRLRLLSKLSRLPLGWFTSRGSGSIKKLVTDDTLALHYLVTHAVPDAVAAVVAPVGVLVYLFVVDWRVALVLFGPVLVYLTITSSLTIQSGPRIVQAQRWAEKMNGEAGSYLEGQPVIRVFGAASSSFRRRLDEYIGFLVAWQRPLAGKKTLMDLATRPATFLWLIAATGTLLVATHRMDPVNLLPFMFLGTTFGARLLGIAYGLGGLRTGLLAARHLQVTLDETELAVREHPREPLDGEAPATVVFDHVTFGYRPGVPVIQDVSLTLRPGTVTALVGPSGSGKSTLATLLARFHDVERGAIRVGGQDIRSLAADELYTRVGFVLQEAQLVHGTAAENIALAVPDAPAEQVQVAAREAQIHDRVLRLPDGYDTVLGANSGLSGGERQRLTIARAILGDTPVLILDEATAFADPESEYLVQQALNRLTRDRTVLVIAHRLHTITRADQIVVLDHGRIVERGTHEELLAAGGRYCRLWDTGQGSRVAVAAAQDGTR
Kind of experiment: cryo-EM structure; full-length IrtAB in digitonin, no nucleotide added; 20 mM MES, 150 mM NaCl, pH 6.5; inward-facing. The following applies: both partners purified.

B1: IrtB with a C-terminal 10x His tag (subunit of Mtb IrtAB) (natural protein)
chain: MIRTWIALVPNDHRARLIGFALLAFCSVVARAVGTVLLVPLMAALFGEAPQRAWLWLGWLSAATVAGWVLDAVTARIGIELGFAVLNHTQHDVADRLPVVRLDWFTAENTATARQAIAATGPELVGLVVNLVTPLTSAILLPAVIALALLPISWQLGVAALAGVPLLLGALWASAAFARRADTAADKANTALTERIIEFARTQQALRAARRVEPARSLVGNALASQHTATMRLLGMQIPGQLLFSIASQLALIVLAGTTAALTITGTLTVPEAIALIVVMVRYLEPFTAVSELAPALESTRATLGRIGSVLTAPVMVAGSGTWRDGAVVPRIEFDDVAFGYDGGSGPVLDGVSFCLQPGTTTAIVGPSGCGKSTILALIAGLHQPTRGRVLIDGTDVATLDARAQQAVCSVVFQHPYLFHGTIRDNVFAADPGASDDQFAQAVRLARVDELIARLPDGANTIVGEAGSALSGGERQRVSIARALLKAAPVLLVDEATSALDAENEAAVVDALAADPRSRTRVIVAHRLASIRHADRVLFVDDGRVVEDGSISELLTAGGRFSQFWRQQHEAAEWQILAE
notes: IrtB (Rv1349) of Mycobacterium tuberculosis H37Rv, TMD and NBD; The same IrtB chain stands in full-length IrtAB and in IrtAB(ΔSID); also called Rv1349
With B1, the binding result is listed as “binds”.
